How the values were obtained:
Conditions in all cases: tags: HA tag (YPYDVPDYA) at C-terminus; label: biotin
[1] = biological target: CXCR4-5-1 six-zinc finger peptide (synthetic construct); assay: fluorescence ELISA; 10 nM site, 50 uM ZnCl2, salmon sperm competitor, RT
Description: (§1) DNA binding reactions contained the appropriate zinc finger peptide, biotinylated binding site (10 nM) and 5 μg competitor. DNA (sonicated salmon sperm DNA), in a total volume of 50 μl, which contained: 1×PBS (pH 7.0), 1.25×10⁻³ U high affinity anti-HA-Peroxidase antibody (Boehringer Mannheim), 50 μM ZnCl₂, 0.01 mg/ml BSA, and 0.5% Tween 20. Incubations are performed at room temperature for 40 minutes. Black streptavidin-coated wells are blocked with 4% marvel for 1 hour. Binding reactions are added to the streptavidin-coated wells and incubated for a further 40 minutes at room temperature. Wells are washed 5 times in 100 μl wash buffer (1×PBS (pH 7.0), 50 μM ZnCl₂, 0.01 mg/ml BSA, and 0.5% Tween 20), and finally 50 μl QuantaBlu peroxidase substrate solution (Pierce) is added to detect bound HA-tagged zinc finger peptide. ELISA signals are read in a SPECTRAmax GeminiXS spectrophotometer (Molecular Devices) and analysed using SOFTmax Pro 3.1.2 (Molecular Devices).
(§2) Zinc finger peptides are expressed using the T7 TNT Quick Coupled Transcription/Translation System for PCR templates (Promega) and assayed for DNA-binding by fluorescence ELISA (see above; FIG. 1). Binding is plotted vertically, on a relative scale. Sequences of the DNA target sites used in each binding reaction are shown below the figure. […]

[2] = biological target: TNFR1-4-2 six-zinc finger peptide (synthetic construct); assay: fluorescence ELISA; 50 uM ZnCl2, RT
Description: as §1
(§3) Zinc finger peptides are expressed using the T7 TNT Quick Coupled Transcription/Translation System for PCR templates (Promega) and assayed for DNA-binding by fluorescence ELISA, as described above in Examples 4 and 6. Sequences of the DNA target sites used in each binding reaction are shown below FIG. 3A.

[3] = biological target: TNFR1-9-12 six-zinc finger peptide (synthetic construct); assay: fluorescence ELISA; control site; signal only in figure, text states specific binding
Description: as §1, §3

[4] = biological target: T1, TNFR1-7-9 six-zinc finger peptide (synthetic construct); assay: as above
Description: as §1, §3

[5] = biological target: CXCR4-10-1 six-zinc finger peptide (synthetic construct); assay: fluorescence ELISA; 10 nM site, 50 uM ZnCl2, salmon sperm competitor, RT
Description: as §1, §2

[6] = biological target: T1, TNFR1-7-9 six-zinc finger peptide; assay: fluorescence ELISA; 50 uM ZnCl2, RT
Description: as §1, §3

T1 sequence (chain, as listed by the source): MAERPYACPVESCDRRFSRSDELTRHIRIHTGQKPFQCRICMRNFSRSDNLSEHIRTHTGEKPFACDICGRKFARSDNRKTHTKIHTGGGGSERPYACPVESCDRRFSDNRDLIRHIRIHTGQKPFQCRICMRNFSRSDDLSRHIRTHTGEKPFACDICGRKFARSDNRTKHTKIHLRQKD
TNFR1-9-12 six-zinc finger peptide (synthetic construct), sequence (chain, as listed by the source): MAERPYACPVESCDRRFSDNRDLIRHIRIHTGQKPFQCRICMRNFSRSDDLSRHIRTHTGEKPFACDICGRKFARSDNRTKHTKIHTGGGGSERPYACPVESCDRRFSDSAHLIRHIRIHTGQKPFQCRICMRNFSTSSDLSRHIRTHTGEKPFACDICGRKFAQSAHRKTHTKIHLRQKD
CXCR4-10-1 six-zinc finger peptide (synthetic construct), sequence (chain, as listed by the source): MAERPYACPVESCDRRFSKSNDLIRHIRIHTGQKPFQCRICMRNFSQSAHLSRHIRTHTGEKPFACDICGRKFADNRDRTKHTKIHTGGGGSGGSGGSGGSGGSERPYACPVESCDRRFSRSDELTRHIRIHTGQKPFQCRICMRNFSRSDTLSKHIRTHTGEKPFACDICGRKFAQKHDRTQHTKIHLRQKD
TNFR1-4-2 six-zinc finger peptide (synthetic construct), sequence (chain, as listed by the source): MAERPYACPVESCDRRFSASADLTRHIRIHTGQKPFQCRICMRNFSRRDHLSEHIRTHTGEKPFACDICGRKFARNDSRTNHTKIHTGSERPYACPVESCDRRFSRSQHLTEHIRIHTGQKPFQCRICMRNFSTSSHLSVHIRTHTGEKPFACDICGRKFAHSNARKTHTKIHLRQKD
CXCR4-5-1 six-zinc finger peptide (synthetic construct), sequence (chain, as listed by the source): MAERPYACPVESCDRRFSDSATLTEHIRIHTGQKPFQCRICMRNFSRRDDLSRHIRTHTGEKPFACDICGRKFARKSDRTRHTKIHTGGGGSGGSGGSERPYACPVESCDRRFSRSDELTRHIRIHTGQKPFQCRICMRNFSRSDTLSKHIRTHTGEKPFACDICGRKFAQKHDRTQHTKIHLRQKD

B1: CXCR4-5-1 target site (dsDNA)
DNA 1: CCGCCCCAGCGGCGCATGCGCCGCGCTCGGAGCGTGTT
DNA 2: AACACGCTCCGAGCGCGGCGCATGCGCCGCTGGGGCGG
binding result [1]: binds

B2: TNFR1 site 4-2 (dsDNA)
DNA 1: GTCGGATTGGTGGGTTGGGGGCACAAGGCA
DNA 2: TGCCTTGTGCCCCCAACCCACCAATCCGAC
binding result [2]: binds
binding result [3]: no binding
binding result [4]: no binding

B3: CXCR4-10-1 target site (dsDNA)
DNA 1: B1 DNA 1
DNA 2: B1 DNA 2
binding result [5]: binds

B4: TNFR1 site 7-9 / 7-10 (dsDNA)
DNA 1: TGGAGGAGGAGGCCACAGGAGGCGGGAGGA
DNA 2: TCCTCCCGCCTCCTGTGGCCTCCTCCTCCA
binding result [6]: binds
